The text below walks through data of article PMC11965559 (Nature Communications, 2024).

B1: Brr1, full length, HT-tag removed (natural protein, S. cerevisiae, UniProt Q99177 1-341, looked up)
chain: MKRGESQAPDAIFGQSRAFALSDSSVNPDVIEYLKSVRQEALRTNAISIKNHMNLQKRTRHKSSMYDDEDEGALKRHAISPSLIRLQRNVEIWVRWFNSVKATVLTNAYEFTGYEDETLDLLLLFLKNYLEDMPSKCTTVEKIISVLNQHSFPEKAEEKEENLQIDEEWAKNILVRLEKTKIDSVEDVKKVITEGDKHELVGYNQWFQYLINNEPQHTTFHEKITSKQLWVLIKYMSNTWIKEIHKKGRHYRRLQDWLFYILVHTPERVTAEYTSILRDLGKKCLELIQKKPVEAHENKITLPKEMAELNVEIPAAVENMTITELTVSVIAVNYGQKDLIE
B2: HT-Brr1, full-length Brr1 with N-terminal HT-tag (natural protein, S. cerevisiae, UniProt Q99177 1-341, looked up)
chain: MKRGESQAPDAIFGQSRAFALSDSSVNPDVIEYLKSVRQEALRTNAISIKNHMNLQKRTRHKSSMYDDEDEGALKRHAISPSLIRLQRNVEIWVRWFNSVKATVLTNAYEFTGYEDETLDLLLLFLKNYLEDMPSKCTTVEKIISVLNQHSFPEKAEEKEENLQIDEEWAKNILVRLEKTKIDSVEDVKKVITEGDKHELVGYNQWFQYLINNEPQHTTFHEKITSKQLWVLIKYMSNTWIKEIHKKGRHYRRLQDWLFYILVHTPERVTAEYTSILRDLGKKCLELIQKKPVEAHENKITLPKEMAELNVEIPAAVENMTITELTVSVIAVNYGQKDLIE
B4: Lot5ΔC, Lot5 (residues 1–227), as used in GFC (domain or fragment, S. cerevisiae, UniProt P34234 1-227, looked up)
chain: MMKKKPKCQIARTKPSVENVIPYNQFKKTQPRFNGNFSALNNEEYIILFGGGRDLILGSLTPCSSSHLSNQANPQDTSEYGTDLFILNSCIIIWFNGLGYGLEIPYSSVLYHASRRLPDGREGLQLEILLTLERDEVLDMLYQSLAPQACEFDGEEAHAFTVRSVELTIRPKYSIYDRHYNNEIETLFTFENFGVNRGDDLVNNCNEALAVCMDLHGEDVQDQDQEQ
B5: HT-Lot5ΔC, Lot5 (residues 1–227) with N-terminal HT-tag (domain or fragment, S. cerevisiae, UniProt P34234 1-227, looked up)
chain: MMKKKPKCQIARTKPSVENVIPYNQFKKTQPRFNGNFSALNNEEYIILFGGGRDLILGSLTPCSSSHLSNQANPQDTSEYGTDLFILNSCIIIWFNGLGYGLEIPYSSVLYHASRRLPDGREGLQLEILLTLERDEVLDMLYQSLAPQACEFDGEEAHAFTVRSVELTIRPKYSIYDRHYNNEIETLFTFENFGVNRGDDLVNNCNEALAVCMDLHGEDVQDQDQEQ

Assay [1] concerns the target T1, D1/D2/F/E/G pentamer (5Sm) (S. cerevisiae, UniProt Q02260 1-109; Q06217 1-110; P54999 1-86; Q12330 1-94; P40204 1-77).
T1 sequence (looked up) 1: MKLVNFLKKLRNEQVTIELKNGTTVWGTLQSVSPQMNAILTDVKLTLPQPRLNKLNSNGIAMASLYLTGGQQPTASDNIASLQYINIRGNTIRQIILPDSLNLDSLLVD
T1 sequence (looked up) 2: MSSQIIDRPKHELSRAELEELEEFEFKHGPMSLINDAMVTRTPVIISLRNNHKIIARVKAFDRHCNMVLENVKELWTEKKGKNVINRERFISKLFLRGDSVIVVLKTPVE
T1 sequence (looked up) 3: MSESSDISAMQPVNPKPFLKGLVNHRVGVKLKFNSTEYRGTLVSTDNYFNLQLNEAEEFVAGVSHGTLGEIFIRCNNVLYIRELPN
T1 sequence (looked up) 4: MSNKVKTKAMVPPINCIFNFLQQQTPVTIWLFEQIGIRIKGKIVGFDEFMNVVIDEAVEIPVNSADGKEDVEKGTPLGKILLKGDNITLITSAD
T1 sequence (looked up) 5: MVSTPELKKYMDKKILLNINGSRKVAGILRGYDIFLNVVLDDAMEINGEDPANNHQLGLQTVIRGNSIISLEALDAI
Description: SEC.

Assay [2] deals with T1, D1/D2/F/E/G pentamer (5Sm). Kind of assay: pull-down.
Assay [3] deals with B4. Kind of assay: SEC.
Assay [4] concerns the target T2, full-length Lot5 with N-terminal HT-tag (S. cerevisiae, UniProt P34234 1-306).
T2 sequence (looked up): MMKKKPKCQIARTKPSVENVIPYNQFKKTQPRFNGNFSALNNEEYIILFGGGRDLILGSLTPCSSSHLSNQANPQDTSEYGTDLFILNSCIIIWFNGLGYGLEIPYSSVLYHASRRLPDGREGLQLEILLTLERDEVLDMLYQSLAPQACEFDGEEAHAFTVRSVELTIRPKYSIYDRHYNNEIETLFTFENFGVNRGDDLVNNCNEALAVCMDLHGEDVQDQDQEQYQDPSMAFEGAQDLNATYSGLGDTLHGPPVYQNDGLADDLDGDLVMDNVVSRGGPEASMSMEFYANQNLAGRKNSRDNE
Description: pull-down.

The target of assay [5] is B5. Kind of assay: pull-down.
Assay [6] deals with T1, D1/D2/F/E/G pentamer (5Sm). Description: pull-down. This is another data set of the same source.
Assay [7] has as its target B1. Description: SEC. On the technique in general: Size exclusion chromatography separates by hydrodynamic size, large species first.
Assay [8] has as its target T3, Brr1Δ(122-197) with N-terminal HT-tag (S. cerevisiae, UniProt Q99177 1-341, Δ(122-197)).
T3 sequence (looked up): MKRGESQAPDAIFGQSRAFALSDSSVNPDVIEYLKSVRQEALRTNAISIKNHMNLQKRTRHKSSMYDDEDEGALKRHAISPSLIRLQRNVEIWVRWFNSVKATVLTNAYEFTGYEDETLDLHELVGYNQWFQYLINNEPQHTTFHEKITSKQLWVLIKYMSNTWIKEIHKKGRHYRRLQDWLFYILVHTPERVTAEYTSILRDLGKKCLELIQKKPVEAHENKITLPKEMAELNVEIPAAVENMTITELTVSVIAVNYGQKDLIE
Kind of assay: pull-down.

The target in assay [9] is B2. Kind of assay: pull-down.

In the case of B1, in assay [1], the binding result is on record as “binds”. Regarding B2, the binding result in assay [2] was “binds”.

B3: D3/B (SmD3/SmB subcomplex, HT-tag removed) (complex, S. cerevisiae)
chain 1: MSKIQVAHSSRLANLIDYKLRVLTQDGRVYIGQLMAFDKHMNLVLNECIEERVPKTQLDKLRPRKDSKDGTTLNIKVEKRVLGLTILRGEQILSTVVEDKPLLSK
chain 2: MTMNGIPVKLLNEAQGHIVSLELTTGATYRGKLVESEDSMNVQLRDVIATEPQGAVTHMDQIFVRGSQIKFIVVPDLLKNAPLFKKNS
Take B3: the binding result in assay [3], in assay [4] and in [5] was “binds” each time. Turning to B4, the binding result in assay [1] was “binds”. On to B5, for which the binding result in [6] is reported as “binds”.

B6: D1/D2 (SmD1/SmD2 subcomplex, HT-tag removed) (complex, S. cerevisiae)
chain 1: MKLVNFLKKLRNEQVTIELKNGTTVWGTLQSVSPQMNAILTDVKLTLPQPRLNKLNSNGIAMASLYLTGGQQPTASDNIASLQYINIRGNTIRQIILPDSLNLDSLLVD
chain 2: MSSQIIDRPKHELSRAELEELEEFEFKHGPMSLINDAMVTRTPVIISLRNNHKIIARVKAFDRHCNMVLENVKELWTEKKGKNVINRERFISKLFLRGDSVIVVLKTPVE
Turning to B6, the binding result in assay [3], in assay [4] and in assay [5] was “binds” each time.

B7: F/E/G (SmF/SmE/SmG subcomplex, HT-tags removed) (complex, S. cerevisiae)
chain 1: MSESSDISAMQPVNPKPFLKGLVNHRVGVKLKFNSTEYRGTLVSTDNYFNLQLNEAEEFVAGVSHGTLGEIFIRCNNVLYIRELPN
chain 2: MSNKVKTKAMVPPINCIFNFLQQQTPVTIWLFEQIGIRIKGKIVGFDEFMNVVIDEAVEIPVNSADGKEDVEKGTPLGKILLKGDNITLITSAD
chain 3: MVSTPELKKYMDKKILLNINGSRKVAGILRGYDIFLNVVLDDAMEINGEDPANNHQLGLQTVIRGNSIISLEALDAI
As for B7, the binding result in [7], in [8] and in assay [9] was “binds” in each case.
